Results from the supplement of paper PMC11246515.
± gives the standard deviation of the averaged measurements.

Assay: total protein half-life in vivo (active degradation + dilution); higher = more stable protein
[1] = E. coli NCM3722 delta-clpP delta-lon delta-hslV, growth: N-lim chemostat, doubling time 6 h
[2] = E. coli NCM3722 delta-clpP, growth: N-lim chemostat, doubling time 6 h
[3] = E. coli NCM3722 delta-hslV, growth: N-lim chemostat, doubling time 6 h
[4] = E. coli NCM3722 delta-lon, growth: N-lim chemostat, doubling time 6 h
[5] = E. coli NCM3722 delta-smpB, growth: N-lim chemostat, doubling time 6 h
[6] = wild type E. coli NCM3722, growth: C-lim chemostat, doubling time 6 h
[7] = wild type E. coli NCM3722, growth: C-lim chemostat, doubling time 12 h
[8] = wild type E. coli NCM3722, growth: N-lim chemostat, doubling time 6 h
[9] = wild type E. coli NCM3722, growth: N-lim chemostat, doubling time 12 h
[10] = wild type E. coli NCM3722, growth: P-lim chemostat, doubling time 6 h
[11] = wild type E. coli NCM3722, growth: P-lim chemostat, doubling time 12 h
[12] = wild type E. coli NCM3722, growth: C-lim chemostat, doubling time 3 h

| Sequence | total protein half-life in vivo [1] [h] | total protein half-life in vivo [2] [h] | total protein half-life in vivo [3] [h] | total protein half-life in vivo [4] [h] | total protein half-life in vivo [5] [h] | total protein half-life in vivo [6] [h] | total protein half-life in vivo [7] [h] | total protein half-life in vivo [8] [h] | total protein half-life in vivo [9] [h] | total protein half-life in vivo [10] [h] | total protein half-life in vivo [11] [h] | total protein half-life in vivo [12] [h] |
| --- | --- | --- | --- | --- | --- | --- | --- | --- | --- | --- | --- | --- |
| MPFRSNNPITRDELLSRFFPQYHPVTTFNSGLSGGSFLIEHQGQRFVVRQPHDPDAPQSAFLRQYRALSQLPACIAPKPHLYLRDWMVVDYLPGAVKTYLPDTNELAGLLYYLHQQPRFGWRITLLPLLELYWQQSDPARRTVGWLRMLKRLRKAREPRPLRLSPLHMDVHAGNLVHSASGLKLIDWEYAGDGDIALELAAVWVENTEQHRQLVNDYATRAKIYPAQLWRQVRRWFPWLLMLKAGWFEYRWRQTGDQQFIRLADDTWRQLLIKQ | 6.3 ± 0.21 | 6.27 ± 0.31 | 6.3 | 6.04 ± 0.35 | 5.66 | 7.13 | > 16 | 6.24 ± 0.49 | 13.6 | 5.96 | 11.1 |  |
| MSWISPELIEILLTILKAVVILLVVVTCGAFMSFGERRLLGLFQNRYGPNRVGWGGSLQLVADMIKMFFKEDWIPKFSDRVIFTLAPMIAFTSLLLAFAIVPVSPGWVVADLNIGILFFLMMAGLAVYAVLFAGWSSNNKYSLLGAMRASAQTLSYEVFLGLSLMGVVAQAGSFNMTDIVNSQAHVWNVIPQFFGFITFAIAGVAVCHRHPFDQPEAEQELADGYHIEYSGMKFGLFFVGEYIGIVTISALMVTLFFGGWQGPLLPPFIWFALKTAFFMMMFILIRASLPRPRYDQVMSFGWKICLPLTLINLLVTAAVILWQAQ [P0AFD4] |  | 6.49 ± 0.27 | 5.73 ± 0.34 | 6.09 ± 0.59 | 6.41 ± 1.4 | 6.75 ± 1.2 | 13.8 ± 2 | 6.53 ± 0.46 | 9.26 ± 2 | 6.237 ± 0.017 | 13.1 ± 3 |  |
| MERLKRMSVFAKVVEFGSFTAAARQLQMSVSSISQTVSKLEDELQVKLLNRSTRSIGLTEAGRIYYQGCRRMLHEVQDVHEQLYAFNNTPIGTLRIGCSSTMAQNVLAGLTAKMLKEYPGLSVNLVTGIPAPDLIADGLDVVIRVGALQDSSLFSRRLGAMPMVVCAAKSYLTQYGIPEKPADLSSHSWLEYSVRPDNEFELIAPEGISTRLIPQGRFVTNDPMTLVRWLTAGAGIAYVPLMWVINEINRGELEILLPRYQSDPRPVYALYTEKDKLPLKVQVVINSLTDYFVEVGKLFQEMHGRGKEK | 5.96 ± 0.4 | 5.9 ± 0.28 | 6.51 ± 0.75 | 6.27 ± 0.31 | 6.03 ± 0.19 |  | 11 ± 0.14 | 5.69 ± 0.44 | 13.9 ± 0.74 | 5.75 ± 0.69 | 12.7 ± 0.32 | 3.47 ± 0.21 |
| MAKNYYDITLALAGICQSARLVQQLAHQGHCDADALHVSLNSIIDMNPSSTLAVFGGSEANLRVGLETLLGVLNASSRQGLNAELTRYTLSLMVLERKLSSAKGALDTLGNRINGLQRQLEHFDLQSETLMSAMAAIYVDVISPLGPRIQVTGSPAVLQSPQVQAKVRATLLAGIRAAVLWHQVGGGRLQLMFSRNRLTTQAKQILAHLTPEL | 6.52 ± 1.1 | 5.78 ± 0.42 | 6.17 ± 0.66 | 5.23 ± 0.89 | 6 ± 0.18 | 5.87 ± 0.23 | 12.2 ± 2.8 | 5.449 ± 0.017 | 10.6 ± 0.7 | 6.04 ± 0.18 | 13.2 ± 0.51 | 3.36 ± 0.65 |
| MKGGKRVQTARPNRINGEIRAQEVRLTGLEGEQLGIVSLREALEKAEEAGVDLVEISPNAEPPVCRIMDYGKFLYEKSKSSKEQKKKQKVIQVKEIKFRPGTDEGDYQVKLRSLIRFLEEGDKAKITLRFRGREMAHQQIGMEVLNRVKDDLQELAVVESFPTKIEGRQMIMVLAPKKKQ [P0A707] | 5.98 ± 0.11 | 5.66 ± 0.61 | 5.02 ± 0.54 | 6.492 ± 0.032 | 5.12 ± 0.1 | 5.555 ± 0.039 | 10.5 ± 0.76 | 4.69 ± 0.57 | 10.9 ± 1.7 | 4.89 ± 0.27 | 10.4 ± 0.88 | 3.35 ± 0.084 |
| MNQFYVHVRLFEDTAEQTKKFEELMLNFLYQKTVKESDDSCCRLIPEGYILKSTMNCQQILDQTFSIANSAGVDANIFVCKFEQSACLLPSASLVGNDFVHYDLTPKPIKLDS | 5.47 ± 0.25 |  |  |  |  |  |  |  |  |  |  |  |
| MNEQNLKHVIALLLEDAKRLQQIEPNAGTEARILLAKQALKTCGAQAPGRTEFMNFMANTLTPLPCNGEKVSRVYHDTMVKALRIELDGLRRKIVMNEIVTN | 4.2 | 4.79 |  |  |  |  |  | 4.61 |  |  |  |  |
| MTTRVIALDLDGTLLTPKKTLLPSSIEALARAREAGYQLIIVTGRHHVAIHPFYQALALDTPAICCNGTYLYDYHAKTVLEADPMPVIKALQLIEMLNEHHIHGLMYVDDAMVYEHPTGHVIRTSNWAQTLPPEQRPTFTQVASLAETAQQVNAVWKFALTHDDLPQLQHFGKHVEHELGLECEWSWHDQVDIARGGNSKGKRLTKWVEAQGWSMENVVAFGDNFNDISMLEAAGTGVAMGNADDAVKARANIVIGDNTTDSIAQFIYSHLI | 5.16 ± 0.18 | 0.903 ± 0.047 | 0.971 ± 0.12 | 1.19 ± 0.11 | 1.09 ± 0.013 | 3.48 ± 1.5 | 3.08 ± 0.64 | 1.05 ± 0.02 | 1.52 ± 0.12 | 3 ± 0.29 | 4.84 ± 0.26 | 2.05 ± 0.096 |
| MSQIFAYCRISTLDQTTENQRREIESAGFKIKPQQIIEEHISGSAATSERPGFNRLLARLKCGDQLIVTKLDRLGCNAMDIRKTVEQLTETGIRVHCLALGGIDLTSPTGKMMMQVISAVAEFERDLLLERTHSGIVRARGAGKRFGRPPVLNEEQKQAVFERIKSGVSISAIAREFKTSRQTILRAKAKLQTPDI | 5.84 ± 0.17 |  |  | 3.81 | 1.43 |  | 4.26 |  |  |  |  | 1.59 |
| MENQPKLNSSKEVIAFLAERFPHCFSAEGEARPLKIGIFQDLVDRVAGEMNLSKTQLRSALRLYTSSWRYLYGVKPGATRVDLDGNPCGELDEQHVEHARKQLEEAKARVQAQRAEQQAKKREAAATAGEKEDAPRRERKPRPTTPRRKEGAERKPRAQKPVEKAPKTVKAPREEQHTPVSDISALTVGQALKVKAGQNAMDATVLEITKDGVRVQLNSGMSLIVRAEHLVF | 6.28 ± 0.52 | 4.08 ± 0.88 | 3.47 ± 0.071 |  | 3.13 ± 0.045 | 4.51 ± 0.22 | 6.83 ± 0.53 | 3.07 ± 0.052 | 4.76 ± 0.052 | 2.974 ± 0.024 | 4.71 ± 0.23 | 2.73 ± 0.21 |
